The target of experiment [1] is T1, recombinant human PD-1 Fc chimera (human, UniProt Q15116 25-167).
T1 construct: Bought protein; also called human PD-1-huFc; huPD-1-Fc; not shown: human Fc
The experiment is described as follows: HTRF inhibition; strep-tagged PD-L1 vs PD-1-Fc. As to the method: All samples and reagents were prepared in HTRF assay buffer containing PBS, 0.1% (w/v) BSA and 0.4M Potassium Fluoride. […] Total binding controls containing periplasmic extract sample buffer and non-specific binding controls containing excess untagged competitor were set up on each plate for data normalisation. Time-resolved fluorescent emission at 620 nm and 665 nm was measured following excitation at 337 nm on the BMG PHERAstar plate reader. Data was expressed as a % of the total binding control (% control) after subtraction of the background signal determined from the non-specific binding control wells.
(In TR-FRET formats the signal depends on donor and acceptor labels being close together.)

Experiment [2] concerns the target T2, human PD-1 expressed on cells (CHO human PD-1 cells) (human, UniProt Q15116 21-288).
T2 construct: also called CHO TREX human PD-1 cell line; CHO PD-1
The experiment is described as follows: FMAT inhibition; 100 pM PD-L1-Fc on CHO human PD-1 cells. As to the method:
All reagents and serially diluted VH were prepared in FMAT assay buffer. […] Plates were incubated for 2 hours at room temperature then fluorescence measured in the FL2 (502 nm-537 nm) and FL5 (677-800 nm) channels on the Mirrorball plate reader (TTP) following excitation at 488 nm and 640 nm. Data was expressed as a % of the total binding control (i.e. % control) after subtraction of the background signal determined from the non-specific binding control wells.

Experiment [3] concerns the target T3, Strep tagged recombinant human PD-1 (human, UniProt Q15116 25-170, limits assumed).
T3 construct: the whole entry is named; also called strep tagged human PD-1; not shown: Strep tag
The experiment in a line: SPR Biacore T200, strep-tagged PD-1 amine-coupled, single cycle kinetics. As to the method:
Single cycle kinetics assays were used to study the interaction between human PD-1 with Humabody® on a Biacore T200 instrument (GE Healthcare). Strep tagged recombinant human PD-1 was amine coupled to one flow cell of a CM-5 chip to create a low density surface (14 RU) using standard Biacore reagents. For the reference flow cell, a blank immobilisation was carried out. A five-point, three-fold dilution series of each Humabody® was made with a top concentration of 25 nM. The binding kinetics were followed by flowing the Humabody® over the chip surface in HBS EP+ buffer at a flow rate of 30 μl/min. The contact time for each of the association steps was 180 seconds and the dissociation step was 3300 seconds. The data was fitted to a 1:1 binding model after double reference subtraction using the Biacore T200 Evaluation software.
On the technique in general: In SPR one partner is held on a chip, and binding of the other changes the refractive index at the surface.

The target of experiment [4] is T2, human PD-1 expressed on cells (CHO …). The experiment in a line: cell-based or functional assay.
Experiment [5] shares this target. The experiment is described as follows: FMAT epitope competition on CHO human PD-1 cells; competitor 1 nM 1.1-Strep. As to the method:
For the epitope competition assay reagents were prepared in FMAT assay buffer. […] Plates were incubated for a minimum of 1.5 hours at room temperature then fluorescence measured in the FL2 (502 nm-537 nm) and FL5 (677-800 nm) channels on the Mirrorball plate reader (TTP) following excitation at 488 nm and 640 nm. Data was expressed as a % of the total binding control (i.e. % control) after subtraction of the background signal determined from the non-specific binding control wells.

Experiment [6] has as its target T1, recombinant human PD-1 Fc chimera. The experiment is described as follows: SPR Biacore T200, PD-1-huFc amine-coupled, single cycle kinetics. As to the method:
Binding kinetics of certain VH single domain antibodies binding to human PD-1-huFc were measured by surface plasmon resonance (SPR) technology using Biacore T200 instrument (GE Healthcare). Recombinant human PD-1-huFc was immobilized by standard amine coupling to CM5 sensorschip (GE Healthcare) using in range of 0.1-0.01 mg/ml solution of antigen in 10 mM sodium acetate at pH 5.5. For the reference flow cell, a blank immobilisation was carried out. Single cycle kinetics assays were used to study the interaction, a five point, three-fold dilution series of each Humabody® was made with a top concentration of 30 nM. The binding kinetics were followed by flowing the Humabody® over the chip surface in HBS EP+ buffer at a flow rate of 30 μl/min. The contact time for each of the association steps was 180 seconds and the dissociation step was varied between 1200-3600 seconds. The data was fitted to a 1:1 binding model after double reference subtraction using the Biacore T200 Evaluation software.

We go through 19 molecules from US20200239573A1 (CRESCENDO BIOLOGICS, published 2020).

Where “and” joins values, the source holds several entries; their conditions need not be identical. Equal entries are not always repeated.

T3 sequence (Q15116 25-170 limits assumed): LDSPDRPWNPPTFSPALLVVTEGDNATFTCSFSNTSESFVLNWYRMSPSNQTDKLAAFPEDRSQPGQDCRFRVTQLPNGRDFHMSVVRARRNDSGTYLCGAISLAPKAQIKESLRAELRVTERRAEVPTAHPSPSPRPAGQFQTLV
T2 sequence (Q15116 21-288): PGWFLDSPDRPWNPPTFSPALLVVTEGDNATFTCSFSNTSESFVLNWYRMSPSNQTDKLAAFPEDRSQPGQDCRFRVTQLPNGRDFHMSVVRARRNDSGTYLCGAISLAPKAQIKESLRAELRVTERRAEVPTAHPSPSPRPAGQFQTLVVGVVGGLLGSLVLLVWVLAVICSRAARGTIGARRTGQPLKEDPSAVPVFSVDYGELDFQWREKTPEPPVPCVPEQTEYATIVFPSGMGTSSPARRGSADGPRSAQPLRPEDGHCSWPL
T1 sequence (Q15116 25-167 limits assumed, change not shown): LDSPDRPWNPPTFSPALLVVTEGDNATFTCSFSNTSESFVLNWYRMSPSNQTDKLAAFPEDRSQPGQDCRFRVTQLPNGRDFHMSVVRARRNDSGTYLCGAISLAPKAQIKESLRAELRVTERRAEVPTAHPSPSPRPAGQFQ

B1: Humabody® 1.3 (VHH)
VHH: QVQLVESGGGLVKPGGSLRLSCAASGFTFSDYTMTWMRQAPGKGLEWVSYISTGGSIKYYTDSVKGRFTISRDNAKNSLYLQMNSLRADDTAVYYCAREAPLRLGESPHDAFDIWGQGTMVTVSS
notes: human VH single domain antibody
The IC50 is the concentration at which inhibition is half-maximal. Take B1: the IC50 in experiment [1] is 2.3 nM.

B2: Humabody® 1.14 (VHH)
VHH: EVQLVESGGGLVQPGRSLRLSCAASGFTFSDYTMTWMRQAPGKGLEWVSYISTGGTIKYYTDSVKGRFTISRDNAKNSLYLQMNSLRADDTAVYYCAREAPLRLGESPHDAFDIWGQGTMVTVSS
notes: as for B1
B2: in experiment [1], the IC50 amounted to 28.5 nM.

B3: Humabody® 1.10 (VHH)
VHH: QVQLVESGGGLVKPGGSLRLSCAASGFTFSDYTMSWMRQAPGKGLEWISYISLGGNTKYYTDSVKGRFTISRDNAKNSLYLQMNSLRADDTAVYYCAREAPLRLGESPHDAFDIWGQGTMVTVSS
notes: as for B1
On to B3, for which the IC50 in experiment [1] was 54.1 nM.

B4: Humabody® 1.8 (VHH)
VHH: EVQLVESGGGLVKPGGSLRLSCAASGFTFSDYTMTWMRQAPGKGLEWVSYISTGGSIKYYTDSVKGRFTISRDNAKNSLYLQMNSLRAGDTAVYYCAREAPLRLGESPHDAFDIWGQGTMVTVSS
notes: as for B1
B4: the IC50 in experiment [1] was 28.8 nM.

B5: Humabody® 1.80 (VHH)
VHH: EVQLVESGGGLVKPGGSLRLSCAASGFTFSDSSMTWMRQAPGKGLEWVSYISSGGGVKFYADSVKGRFTISRDNAKNSLYLQMNSLRAEDTAVYYCAREAPLRLGESPHDAFDISGQGTMVTVSS
notes: as for B1
Usually Kd stands for the concentration at which binding is half-saturated. As usually defined, the koff is a measure of how fast the partners let go of each other. What is called kon is the second-order rate constant of association. With B5, in experiment [2], the IC50 worked out at 1.82 nM. In experiment [3], the Kd was 0.0297 nM, the koff is 5.2e-05 s⁻¹ and the kon was determined as 1.76e+06 M⁻¹ s⁻¹.

B6: Humabody® 1.53 (VHH)
VHH: QVQLVESGGGLVKPGGSLRLSCAASGFTFSDNSMTWMRQAPGKGLEWVSYISSGGSVKFYADSVKGRFTISRDNAKNSLYLQMNSLRADDTAVYYCAREAPLRLGESPHDAFDIWGQGTMVTVSS
notes: as for B1
With B6, in experiment [4], the “Reporter Assay EC50” value amounted to 14 nM. In experiment [5], this molecule showed an IC50 of 5.4 nM.

B7: Humabody® 1.90 (VHH)
VHH: EVQLVESGGGLVKPGGSLRLSCAASGFTFSDVSMTWMRQAPGKGLEWVSYISSGGGVKFYADSVKGRFTISRDNAKNSLYLQMNSLRAEDTAVYYCAREAPLRLGESPHDAFDISGQGTMVTVSS
notes: as for B1
Regarding B7, the results for the IC50 in experiment [2] and in experiment [5] were 3 nM and 1.6 nM, respectively.

B8: Humabody® 1.44 (VHH)
VHH: QVQLVESGGGLVKPGGSLRLSCAASGFTFSDNSMTWMRQAPGKGLEWVSYISSGGAVKFYADSVKGRFTISRDNAKNSLYLQMNSLRADDTAVYYCAREAPLRLGESPHDAFDIWGQGTMVTVSS
notes: as for B1
With B8, the “Reporter Assay EC50” value in experiment [4] was determined as 41 nM. Moreover, in experiment [6], the Kd is 0.2 nM and 0.17 nM; the koff was 4.18e-05 s⁻¹ and 4e-05 s⁻¹; the kon is 209000 M⁻¹ s⁻¹ and 235000 M⁻¹ s⁻¹. The IC50 in experiment [5] is 1.9 nM.

B9: Humabody® 1.58 (VHH)
VHH: QVQLVESGGGLVKPGGSLRLSCAASGFTFSDNTMTWMRQAPGKGLEWVSYISTGGGVKFYADSVKGRFTISRDNAKNSLYLQMNSLRADDTAVYYCAREAPLRLGESPHDAFDIWGQGTMVTVSS
notes: as for B1
Take B9: the “Reporter Assay EC50” value in experiment [4] stood at 7.1 nM. Also, in experiment [5], the IC50 was 4.6 nM.

B10: Humabody® 1.51 (VHH)
VHH: QVQLVESGGGLVKPGGSLRLSCAASGFTFSDSSMTWMRQAPGKGLEWVSYISSGGAVKFYTDSVKGRFTISRDNAKNSLYLQMNSLRADDTAVYYCAREAPLRLGESPHDAFDIWGQGTMVTVSS
notes: as for B1
Regarding B10, the “Reporter Assay EC50” value in experiment [4] came to 23 nM. Also, in experiment [6], the Kd is 0.317 nM, the koff turned out to be 5.98e-05 s⁻¹ and the kon was 189000 M⁻¹ s⁻¹. The same molecule displayed an IC50 in experiment [5] of 4.7 nM.

B11: Humabody® 1.42 (VHH)
VHH: QVQLVESGGGLVKPGGSLRLSCAASGFTFSDNSMTWMRQAPGKGLEWVSYISSGGGVKFYADSVKGRFTISRDNAKNSLYLQMNSLRADDTAVYYCAREAPLRLGESPHDAFDIWGQGTMVTVSS
notes: as for B1
As for B11, the “Reporter Assay EC50” value in experiment [4] was 8.6 nM. Moreover, in experiment [6], the Kd is 0.0505 nM, the koff was 2.69e-05 s⁻¹ and the kon was 532000 M⁻¹ s⁻¹. This molecule yielded an IC50 in experiment [5] of 3.5 nM.

B12: Humabody® 1.59 (VHH)
VHH: QVQLVESGGGLVKPGGSLRLSCAASGFTFSDNSMSWMRQAPGKGLEWVSYISSGGSVKFYADSVKGRFTISRDNAKNSLYLQMNSLRADDTAVYYCAREAPLRLGESPHDAFDIWGQGTMVTVSS
notes: as for B1
Turning to B12, in experiment [4], the “Reporter Assay EC50” value amounted to 24 nM. This molecule also had an IC50 in experiment [5] of 7.8 nM.

B13: Humabody® 1.43 (VHH)
VHH: QVQLVESGGGLVKPGGSLRLSCAASGFTFSDSSMTWMRQAPGKGLEWVSYISSGGGVIFYADSVKGRFTISRDNAKNSLYLQMNSLRADDTAVYYCAREAPLRLGESPHDAFDIWGQGTMVTVSS
notes: as for B1
Take B13: the “Reporter Assay EC50” value in experiment [4] is 12 nM. In addition, in experiment [6], the Kd amounted to 0.0681 nM, the koff was determined as 2.79e-05 s⁻¹ and the kon amounted to 410000 M⁻¹ s⁻¹. The IC50 in experiment [5] was 1.3 nM.

B14: Humabody® 1.11 (VHH)
VHH: EVQLLESGGGLVKPGGSLRLSCAASGFTFSDYDMTWIRQAPGKGQEWVSYISRGGSTKYYADSVKGRFTISRDNAKNSLYLQMNSLRAEDTAVYYCAREAPLRLGETPHDAFDIWGQGTMVTVSS
notes: as for B1
As for B14, the IC50 in experiment [1] stood at 5.16 nM.

B15: Humabody® 1.6 (VHH)
VHH: EVQLLESGGGLVKPGGSLRLSCAASGFTFSDYTMTWMRQAPGKGLEWVSYISTGGTIKYYTDSVKGRFTISRDNAKNSLYLQMSSLRADDTAVYYCAREAPLRLGESPHDAFDIWGQGTMVTVSS
notes: as for B1
Turning to B15, in experiment [1], the IC50 was determined as 13.1 nM.

B16: Humabody® 1.7 (VHH)
VHH: EVQLVESGGGLVKPGGSLRLSCAASGFTFSDYTMTWMRQAPGKGLEWVSYISTGGTIKYYTDSVKGRFTISRDNAKNSLYLQMNSLRADDTAVYYCAREAPLRLGESPHDAFDIWGQGTMVTVSS
notes: as for B1
Turning to B16, the IC50 in experiment [1] was 4.4 nM.

B17: Humabody® 1.89 (VHH)
VHH: EVQLVESGGGLVKPGGSLRLSCAASGFTFSDYSMTWMRQAPGKGLEWVSYISSGGGVKFYADSVKGRFTISRDNAKNSLYLQMNSLRAEDTAVYYCAREAPLRLGESPHDAFDISGQGTMVTVSS
notes: as for B1
For the molecule B17, in experiment [4], the “Reporter Assay EC50” value is 19 nM. For the same molecule, in experiment [5], the IC50 was found to be 2.4 nM. In experiment [3], the dissociation constant (Kd) stood at 0.0342 nM, the koff worked out at 5.6e-05 s⁻¹ and the kon worked out at 1.6e+06 M⁻¹ s⁻¹.

B18: Humabody® 1.12 (VHH)
VHH: EVQLLESGGGVVKPGGSLRLSCAASGFTFSDYYMGWIRQAPGKGLEWISYISSSGSTIYYADSVKGRFTISRDNAKNSLYLQMNSLRAEDTAVYYCAREAPLRLGESPHDAFDIWGQGTMVTVSS
notes: as for B1
Take B18: in experiment [1], the IC50 was 4.18 nM.

B19: Humabody® 1.15 (VHH)
VHH: QVQLVESGGGLVKPGGSLRLSCAASGFTFSDNSMSWIRQAPGKGLEWVSYISSSGSTIYYADSVKGRFTISRDNAKNSLYLQMNTLRAEDTAVYYCAKEAPLRLGESPHDAFDIWGQGTMVTVSS
notes: as for B1
B19: the IC50 in experiment [1] stood at 3.78 nM.
